Experimental findings from PMC12720421, “Disordered N‐termini enhance the thermostability of SGNH‐hydrolase family polyesterases” (Protein Science : A Publication of the Protein Society, 2025) are described below.

Where “and” joins values, the source holds several entries; their conditions need not be identical. Equal entries are not always repeated.

Data set [1] has as its target Rp_EST from Rhodothermus profundi (Rhodothermus profundi). Briefly: SEC; analytical SEC on a Superdex 200 Increase 10/300 GL column, with a BioRad Gel Filtration Standard; self-association of each purified esterase. In general terms: In gel filtration, larger molecules generally elute earlier.
The test system of data set [2] is CCCC(=O)Oc1ccc([N+](=O)[O-])cc1. Kind of data set: purified protein. In kind it is biochemical, Maribacter thermophilus. The conditions noted are these: 50 mM Tris pH 8.0, room temperature, 5% methanol, 0.05-0.1 μM enzyme.
Data set [3] addresses PpEST from Pseudomonas oleovorans (Pseudomonas oleovorans). Briefly: SEC; analytical SEC on a Superdex 200 Increase 10/300 GL column, with a BioRad Gel Filtration Standard; self-association of each purified esterase.
Another data set deals with T1, Pmt_EST (Zestomonas thermotolerans, UniProt Z9LQW2KWT1).
T1 sequence (Z9LQW2KWT1 41-245): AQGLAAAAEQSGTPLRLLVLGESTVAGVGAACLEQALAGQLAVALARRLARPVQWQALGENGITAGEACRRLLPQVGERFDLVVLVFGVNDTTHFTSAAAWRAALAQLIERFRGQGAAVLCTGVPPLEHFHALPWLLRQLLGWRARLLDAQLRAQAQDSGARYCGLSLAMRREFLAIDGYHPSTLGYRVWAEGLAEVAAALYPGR
Kind of data set: pNP release at […] nm, specific activity. In kind it is biochemical. The note with it: 50 mM Tris pH 8.5, 5% methanol.

Another data set deals with T2, Ft_EST (Fontimonas thermophila, UniProt A0A1I2JG86).
T2 construct: gene SAMN04488120_10748
T2 sequence (A0A1I2JG86 25-217): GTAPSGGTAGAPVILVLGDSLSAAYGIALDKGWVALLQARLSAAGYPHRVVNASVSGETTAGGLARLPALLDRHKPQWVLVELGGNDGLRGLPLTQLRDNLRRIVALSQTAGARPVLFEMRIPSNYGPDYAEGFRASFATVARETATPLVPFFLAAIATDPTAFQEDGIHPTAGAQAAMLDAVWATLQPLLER
Kind of data set: pNP release at […] nm, specific activity. The data set is classed as biochemical. The note with it: 50 mM Tris pH 8.5, 5% methanol.

Substrate in data set [4]: CCCC(=O)Oc1ccc([N+](=O)[O-])cc1
Kind of data set: purified protein. The data set is classed as biochemical, Chloracidobacterium thermophilum. The conditions noted are these: 50 mM Tris pH 8.0, room temperature, 5% methanol, 0.05-0.1 μM enzyme.

Substrate in data set [5]: CCCC(=O)Oc1ccc([N+](=O)[O-])cc1
Briefly: purified protein. The data set is classed as biochemical, Ectopseudomonas oleovorans. The conditions noted are these: 50 mM Tris pH 8.0, room temperature, 5% methanol, 0.05-0.1 μM enzyme.

Substrate in data set [6]: CCCC(=O)Oc1ccc([N+](=O)[O-])cc1
Kind of data set: purified protein. In kind it is biochemical, Rhodothermus profundi. The conditions noted are these: 50 mM Tris pH 8.0, room temperature, 5% methanol, 0.05-0.1 μM enzyme.

Substrate in data set [7]: CCCC(=O)Oc1ccc([N+](=O)[O-])cc1
Kind of data set: purified protein. The data set is classed as biochemical, Altericroceibacterium indicum. The conditions noted are these: 50 mM Tris pH 8.0, room temperature, 5% methanol, 0.05-0.1 μM enzyme.

For the molecule “Rp_EST from Rhodothermus profundi (enzyme)”, the stoichiometry N in data set [1] was 2 and 4.
For the molecule Mt_EST (Maribacter thermophilus), in data set [2], the Km amounted to 453 ± 81 µM, the kcat was 54.4 ± 4.4 s⁻¹ and the kcat/Km was found to be 120000 M⁻¹ s⁻¹.
Consider “PpEST from Pseudomonas oleovorans (enzyme)”, for which, in data set [3], the stoichiometry N is 2.
In the case of `CCCC(=O)Oc1ccc([N+](=O)[O-])cc1` [pNP-butyrate], the “pNP release at 410 nm, specific activity” value is “showed a clear preference for mid‐chain length esters, particularly pNP‐butyrate (C4)” on Pmt_EST and “showed a clear preference for mid‐chain length esters, particularly pNP‐butyrate (C4)” on Ft_EST.

B1: Ct_EST (Chloracidobacterium thermophilum B) (protein)
chain: GGCSRTGTEAPENLPVLAPAPTDAAPTARPRIVVLGDSLTAGFGLPREASYPTVLQKKLDAAGLNYQVINAGISGDTSAGGVERLDWSLDGDVRIVILALGANDGLRGLPLTQMEANLRTIIERARARGAQVILAGLKAPAEAGPDYGAQFEAVYRKLAQQYRLPLIPSLLEGVAGREELNQEDGIHPNARGAAIVADNVWKVLEPVARQQLAQSQSNPDAPPAAKPAGAR
Consider B1, for which, in the data set “purified protein [4]”, the Km was 791 ± 178 µM, the kcat is 38.5 ± 4.8 s⁻¹ and the kcat/Km turned out to be 49000 M⁻¹ s⁻¹.

B2: PpEST (Ectopseudomonas oleovorans CECT 5344) (protein)
chain: GTLLVVGDSISAAFGLDSRQGWVALLEKRLSEEGFEHSVVNASISGDTSAGGAARLSALLAEHKPELVIIELGGNDGLRGQPPAQLQQNLASMVEQSQQAGAKVLLLGMKLPPNYGVRYTTAFAQVFTDLAEQKQVSLVPFFLEGVGGVPGMMQADGIHPAEAAQEILLDNVWPTLKPML
On to B2, for which, in the data set “purified protein [5]”, the Km is 242 ± 49 µM, the kcat amounted to 14 ± 1 s⁻¹ and the kcat/Km is 58000 M⁻¹ s⁻¹.

B3: Rp_EST (Rhodothermus profundi) (protein)
chain: QDTSKSSASSSEGSPDTTAKTPTHAARAAQPITVLVLGNSLAAGYGLSPDEAFPAILQRKVDSLGWPVRILNAGLSGETSAGGLRRIDWLLRERIDVLILELGANDGLRGIDPEVTRQNLQGIIDKVRARYPEADIILAGMQLPPNLGPAYTAAFRALYPELARANNAYLIPFLLEGVGGVPELNQADGIHPTAEGQRIVAENVWRVLRPVLERRLGLA
Turning to B3, in “purified protein [6]”, the Km stood at 246 ± 72 µM, the kcat was determined as 12 ± 1.3 s⁻¹ and the kcat/Km came to 49000 M⁻¹ s⁻¹.

B4: AlinE4 (Altericroceibacterium indicum) (protein)
chain: SMGESRVILAFGDSLFAGYGLDKGESYPAKLETALRSHGINARIINAGVSGDTTAAGLQRIKFVLDSQPDKPELAIVELGGNDLLRGLSPAEARQNLSGILEELQRRKIPILLMGMRAPPNLGAKYQREFDGIYPYLAEKYDAKLVPFFLEAVADRPDLIQKDHVHPTARGVEELVSATSNAVAKALPAKK
B4: in “purified protein [7]”, the Km was 194 ± 55 µM, the kcat stood at 15 ± 1.4 s⁻¹ and the kcat/Km is 77000 M⁻¹ s⁻¹.

B5: shRp_EST (Rhodothermus profundi) (protein)
chain: ITVLVLGNSLAAGYGLSPDEAFPAILQRKVDSLGWPVRILNAGLSGETSAGGLRRIDWLLRERIDVLILELGANDGLRGIDPEVTRQNLQGIIDKVRARYPEADIILAGMQLPPNLGPAYTAAFRALYPELARANNAYLIPFLLEGVGGVPELNQADGIHPTAEGQRIVAENVWRVLRPVLERRLGLA
notes: N-terminal extension truncated to align with AlinE4 and PpEST (borders not in main text), C-terminal 6xHis tag, E. coli, monomer
Regarding B5, in “purified protein [6]”, the Km worked out at 257 ± 43 µM, the kcat turned out to be 25 ± 1.6 s⁻¹ and the kcat/Km came out at 97000 M⁻¹ s⁻¹.

B6: shCt_EST (Chloracidobacterium thermophilum B) (protein)
chain: TARPRIVVLGDSLTAGFGLPREASYPTVLQKKLDAAGLNYQVINAGISGDTSAGGVERLDWSLDGDVRIVILALGANDGLRGLPLTQMEANLRTIIERARARGAQVILAGLKAPAEAGPDYGAQFEAVYRKLAQQYRLPLIPSLLEGVAGREELNQEDGIHPNARGAAIVADNVWKVLEPVARQQLAQSQSNPDAPPAAKPAGAR
notes: as for B5
In the case of B6, in “purified protein [4]”, the Km worked out at 646 ± 139 µM, the kcat was 33.3 ± 3.7 s⁻¹ and the kcat/Km amounted to 52000 M⁻¹ s⁻¹.

In general, stoichiometry N refers to the number of molecules, sites or subunits per partner or assembly. What is called Km is the substrate concentration at which the rate is half of its maximum. As usually defined, the kcat is the maximal rate divided by the concentration of active sites. One may read the kcat/Km as the turnover number divided by the Michaelis constant.
